Laboratory results taken from the DeepSol protein solubility set.

Assay: soluble on expression in E. coli; label from the status in PepcDB or PDB records

Row | Sequence | soluble on expression in E. coli
1 | MQVLDKTQVEAVSKALGEPAWLLEKRLKALEAFARLPYPSKKDENWRYTDLSEAPLELPVEAPKGLRLSRDDLPEPVKRRLERTDVSGFLVFVGPDLVYAEVPEALKEKGLVFTSLAEALKTHPDKVEAALFQAVYTEDKFAAQNSAFFTHGAFLYVPAGLEVEKPLGVFKVLLEGEKASAGRSLLFLEDNAKAAYIEEYLSLDLPPTLHLSATEMVLRPGARLRHAHVQTFGEGVWHFHRQRALLERDSGLNDLVVNLGGAYARSEVASELVGPGAESEMLGLYFGHGRQQFDHYTLQHHVEHHTRSDLLYKGAVKDEARAVFSGLIRLEKGAQKTDAYQANRNLLLSPTARVDSIPQLEIGANDVRCTHGSTTAPVDEMQLFYLQSRGLPRGLAQELLVKAHLADVLSRIPLKALRAHIEAVIEEKVRI | soluble
2 | MSSPKVGFVSLGRPKALVDSERILTQLRTEGYEVTPEYNDADVVVVNTCGFIDSAKAESLEAIGEAIAENGKVIVTGCMGVEESVIRQVHPSVLAVTGPQQYEEVVRAVHGVAPPRQDHNPYLDLVPPQGVKLTPRHYAYLKISEGCNHRCSFCIIPSMRGDLVSRPVGDVLSEAERLVRAGVKELLVISQDTSAYGVDIKYRSGFWNGRPVKTRMTELCAALSELGVWTRLHYVYPYPHVDEVIGLMADGKVLPYLDIPFQHASPRILRAMKRPAFEDKTLARIKRWREECPDLTLRSTFIVGFPGETEEDFQYLLDWMSEAQLDRVGCFQYSPVEGAPANTLDNPVPDEVKQERWERFMEHQQAISTARLSTRVGREIDVLIDSVDEEGAVGRSSADAPEIDGCVYVDSEQPLKAGDMVRVRVTDSDEYDLWGERIALEHHHHHH | soluble
3 | MLIRTEAPADILTIDRLLKHAFPTDAEANLVMRLRENGKLTLSLVACTDEGEVIGHALFSPVTLNGEDLSWQGLAPLAVHEDYRRQGIGAELIKEGFESLRDFGYPVCVVLGEPNYYARQGFNAGEEMGFECAWEVPEGAFRVAELVEGQCTGRSGRIDYAPEFSEL | not soluble
4 | GPGSMAHLFFTGACAAAAALPISDREEVSPVWSIYDDYCCGASQHAEVDDPQVEGEGVGNCGGTTPPRLPFISGPVSSMTLKGAQLKKEAPIRRGAQGAVYSALDVATSAPAEDEKAKGLFSPEACRGHEGEAQVADGGQRPARRGRRVAVKRIFIQASDFGARDISATVLREVTLHRFVSEKQAACLAAAGAFYPTGSTSDATALAEADQGQTLCNLIDDSARVIHLYRVVEAPHKEMCLVMELAATNLEQVVFPHGARGASRGDGAGGYKRKPGVVSLFGSSASIGVGGGLGLSSASPSTAPDAATAEVGPQASSPSPPPSRMPLVRYVMRRLLRLVCFLHETCCVVHRDLKLSNVLVSKDAGLRLGDFGSARFIPPLRSATKTGVENSPSVPEPPAAPAGQREHLLCTPPSIRTTLHYRPPEALLGDQVCRTAADVWALGVIFAQLLLQKGLFHSESELDLLGAIQKLLGMPTYSAPPSWLAAPSVPGPPRERESAAHVPAPQASLPYKFHTGVVPADGLDLLSRMLHQQPECRVTAREALQHPFLNLEGLSAAATHDDDERGRVLWEERVATVLREQATGHIYGMGGGERRPMLISLADNEDEEDQEDDEVGVAPFCVNLGGCTSY | not soluble
5 | MNNHFKCIGIVGHPRHPTALTTHEMLYRWLCDQGYEVIVEQQIAHELQLKNVPTGTLAEIGQQADLAVVVGGDGNMLGAARTLARYDINVIGINRGNLGFLTDLDPDNALQQLSDVLEGRYISEKRFLLEAQVCQQDRQKRISTAINEVVLHPGKVAHMIEFEVYIDETFAFSQRSDGLIISTPTGSTAYSLSAGGPILTPSLDAITLVPMFPHTLSARPLVINSSSTIRLRFSHRRSDLEISCDSQIALPIQEGEDVLIRRCDYHLNLIHPKDYSYFNTLSTKLGWSKKLFMAGDPLEHHHHHH | not soluble
6 | MAHHHHHHMEDEKVGTANNDEKVTMSMPEEYMPKNISEILIGAVEEDRTYALKGDEPCDSYIKLGEIVHGTNEKTTQFTFPKNKVLCVQLEAINGNGYLWALLGVHKEKPQINPEEFPRKKITKSFFTNEISVTQPKAIQKNTSNNGGDISPNSSGYGKPRGSEHLGGFVGGASTLQSMVKAHKAGTFYIVYSYYRPFDPTASANTKILQLTVS | soluble
7 | GTEETAKVVPMAVITPAINQLTDQEKAEGWALLFDGKTTKGWRGAHKDAFPDHGWMVKDGELIVQKSDGSESTNGGDIVTEGEYSAFEFSVDFKITEGANSGIKYFVTEQEKQKGSAYGLEFQLLDDAKHPDAKLYTTFPGSRTLGSLYDLKKSENIHFNGVGEWNTAVVKVFPNNHVEHWLNGVKVLEYERGSKEFRDLVKGSKYADPSYNAGGAFGEAPKGHILLQDHGDEVAFRNIKVKELK | soluble
8 | MGSDKIHHHHHHMRALLCGYYGEGNGGDEALLAALLQLLPPTVEPLVLSGNPAATRTCYGVEACDRRSGAAVWQALRRSDLFIFGGGSLIQDVTSWTSPLYYCGLMGLAQQLGLKTIAWAQGIGPLQRKRTRWLARRTFQHCDRITVRDRGSAALLKEWGISVAIAPDPVWALEPLPLDQPLSNQEAIAVCLRPHPELTPERSDRLKAALTTLQSQTQAPILLIPFHHQQDRPLAAQWASEIPQAEVLDWQHPRQLLSYFQSVRLTIAMRFHGLVMAAAAGNRCFGLSYDPKVRRFLDALEQPGWDLPEIPDSAEAIAAAWLESWQAEPIHAAAIADLRQQVDVHRQALVF | not soluble
9 | MERRLGVRAWVKENRGSFQPPVCNKLMHQEQLKVMFVGGPNTRKDYHIEEGEEVFYQLEGDMVLRVLEQGKHRDVVIRQGEIFLLPARVPHSPQRFANTVGLVVERRRLETELDGLRYYVGDTMDVLFEKWFYCKDLGTQLAPIIQEFFSSEQYRTGKPIPDQLLKEPPFPLSTRSIMEPMSLDAWLDSHHRELQAGTPLSLFGDTYETQVIAYGQGSSEGLRQNVDVWLWQLEGSSVVTMGGRRLSLAPDDSLLVLAGTSYAWERTQGSVALSVTQDPACKKPLGLEHHHHHH | not soluble
10 | MLITDTLSPQAFEEALRAKGDFYHIHHPYHIAMHNGNATREQIQGWVANRFYYQTTIPLKDAAIMANCPDAQTRRKWVQRILDHDGSHGEDGGIEAWLRLGEAVGLSRDDLLSERHVLPGVRFAVDAYLNFARRACWQEAACSSLTELFAPQISQSRLDSWPQHYPWIKEEGYFYFRSRLSQANRDVEHGLALAKAYCDSAEKQNRMLEILQFKLDILWSMLDAMTMAYALQRPPYHTVTDKAAWHTTRLVLEHHHHH | soluble
11 | MGSDKIHHHHHHMINTKNLNVFYNENKVLKDIQLEVIPGRITGIIGPNGAGKSTLIKAILNIVPHSGEILINGEVSKKQLKKIAYVEQKSDIDHTFPIKVKECVSLGTYTGLKLFQKLGAKEWSRVSEALQKVNLLDYENRQIGELSGGQFQRVLLARCLVQEADYIFLDEPFVGIDSISEKIIMDILQDLKHQGKTILIVHHDLSKVKEYFDDIIILNRELIAYGPINENFSQKNLKKAYGDNIFIGD | not soluble
12 | MSLAEKKERIRFMTVDDVDAVVRVEEQTFTVPWSREAFINEVTNNQFARYVVYEVGEQIVGYCGVWVVYDESHITNIAIHPDYRGEKRGEALLRYILEFARLLGAKKLSLEVRISNEIAQRLYRKFGFQAGGIRKNYYTDNQEDALVMWVMLSEGHHHHHH | soluble
13 | MKEGDTMSWQTHTVFNQPAPLNNSNLFLSDGALCEAVSREGAGWDSDLLASIGQQLGTAESLELGRLANAHPPELLRYDPQGQRLDDVRFHPAWHLLMQGLCANRVHNLAWEEEARAGSFVARAARFVLHAQVEAGTLCPVTMTFAATPLLLQMLPATFHDWLAPLRSDRYDSHLLPGGQKRGLLIGMGMTEKQGGSDVLSNTTHAERLADDSYRLVGHKWFFSVPQSDAHLVLAQAKGGLSCFFVPRFLPDGQRNSVRLERLKDKLGNRSNASAEVEFQDAIGWRLGEEGEGIRHILKMGGMTRLDCALGSHGLMRRAFSVAIYHAHQRQAFGKPLIDQPLMRQTLSRMALCLEGQTALLFRLARAWEQRREAKEALWARLFTPAAKFAICKLGIPFVAEAMEVLGGMGYCEESELPRLYREMPVNSIWEGSGNIMCLDVLRVLTKQHGVYDVLSEAFAEVKGQDRHYDRAVRQLQQRLRKPDEAMGREITQQLFLLGCGAEMLRHASPPLAQAWCQMMLDTRGEMPLPAQVQNDLLLRATGGLR | not soluble
